Positions count from the first letter of the chain named. Names and notes keep the numbering of the source. One block for each binder: values may come before it. No end group written: not given here. *: point of attachment. FITC = O=C1OC2(c3ccc(O)cc3Oc3cc(O)ccc32)c2ccc(NC(=S)*)cc21
Key:
[1] = biological target: T1, labeled peptide X…-FITC with N-terminal valine (FITC on the C-terminal Lys); assay: fluorescence polarization; text of paragraph 337
T1 construct: also called VA peptide; valine peptide

[2] = biological target: T2, LA peptide; assay: BLI (Octet), peptide on sensor, purified protein in solution; second row for PS829
T2 construct: The peptide was coated on the Octet sensor; also called peptide with N-terminal leucine and penultimate alanine
From the text: (§1) In the high-throughput assay, Octet sensors are coated with the peptide of interest and dipped in buffer containing the purified protein. An approximation of relative binding can be obtained by comparing the response after 200 seconds for each protein. Each protein has approximately the same molecular mass and is used at the same concentration, so ranking the proteins by response level in this assay gives an approximation of which proteins have improved binding. Studying the on and off-rate can also give insight into the mechanism of binding.

[3] = biological target: T3, AA peptide; assay: as above
T3 construct: The peptide was coated on the Octet sensor; also called peptide with N-terminal alanine and penultimate alanine
From the text: as §1

[4] = biological target: T4, VA peptide; assay: as above
T4 construct: The peptide was coated on the Octet sensor; also called peptide with N-terminal valine and penultimate alanine
From the text: as §1

[5] = biological target: T2, LA peptide; assay: BLI (Octet), peptide on sensor, purified protein in solution
From the text: as §1

[6] = biological target: T3, AA peptide; assay: as above
From the text: as §1

[7] = biological target: T4, VA peptide; assay: as above
From the text: as §1

[8] = biological target: T2, LA peptide; assay: BLI (Octet), peptide on sensor, purified protein in solution; second row for PS833
From the text: as §1

[9] = biological target: T3, AA peptide; assay: as above
From the text: as §1

[10] = biological target: T4, VA peptide; assay: as above
From the text: as §1

[11] = biological target: T5, WA peptide (Octet assay of PS557 variants); assay: Octet (BLI), peptide on sensor, response after 200 s association
T5 construct: Peptide coated on the Octet sensor
From the text: as §1

[12] = biological target: T6, YA peptide (Octet assay of PS557 variants); assay: as above
T6 construct: Peptide coated on the Octet sensor
From the text: as §1

[13] = biological target: T7, MA peptide (Octet assay of PS557 variants); assay: as above
T7 construct: Peptide coated on the Octet sensor
From the text: as §1

[14] = biological target: T8, IA peptide (Octet assay of PS557 variants); assay: as above
T8 construct: Peptide coated on the Octet sensor
From the text: as §1

[15] = biological target: T9, FA peptide (Octet assay of PS557 variants); assay: as above
T9 construct: Peptide coated on the Octet sensor
From the text: as §1

[16] = biological target: T7, MA peptide (Octet assay of PS557 …); assay: as above; remark: listed apart in the source
From the text: (§2) In the high-throughput assay, Octet sensors are coated with the peptide of interest and dipped in buffer containing the purified protein. […] Studying the on and off-rate can also give insight into the mechanism of binding.

[17] = biological target: T10, AA peptide (Octet assay of PS557 variants); assay: as above
T10 construct: Peptide coated on the Octet sensor
From the text: as §2

[18] = biological target: T11, VA peptide (Octet assay of PS557 variants); assay: as above
T11 construct: Peptide coated on the Octet sensor
From the text: as §2

[19] = biological target: T8, IA peptide (Octet assay of PS557 …); assay: as above; remark: listed apart in the source
From the text: as §2

[20] = biological target: T9, FA peptide (Octet assay of PS557 …); assay: as above; remark: listed apart in the source
From the text: as §2

[21] = biological target: T12, LA peptide (Octet assay of PS557 variants); assay: as above
T12 construct: Peptide coated on the Octet sensor
From the text: as §2

[22] = biological target: T13, LA Peptide (fluorescence polarization); assay: fluorescence polarization, FITC peptide titrated with protein
T13 peptide: LAKLDEESILKQK(FITC)

[23] = biological target: T14, IA Peptide (fluorescence polarization); assay: as above
T14 peptide: IAKLDEESILKQK(FITC)

[24] = biological target: T15, AA Peptide (fluorescence polarization), AAKLDEESILKQ{LYS(FITC)}; assay: as above
T15 peptide: AAKLDEESILKQK(FITC)

[25] = biological target: T1, labeled peptide X…-FITC with N-terminal …; assay: fluorescence polarization
[26] = biological target: T5, WA peptide (Octet assay of PS557 …); assay: Octet (BLI), peptide on sensor, response after 200 s association; second PS833 row
From the text: as §1

[27] = biological target: T6, YA peptide (Octet assay of PS557 …); assay: as above
From the text: as §1

[28] = biological target: T7, MA peptide (Octet assay of PS557 …); assay: as above
From the text: as §1

[29] = biological target: T8, IA peptide (Octet assay of PS557 …); assay: as above
From the text: as §1

[30] = biological target: T9, FA peptide (Octet assay of PS557 …); assay: as above
From the text: as §1

[31] = biological target: VA Peptide (fluorescence polarization) (FITC on the C-terminal lysine); assay: fluorescence polarization, FITC peptide titrated with protein
[32] = biological target: T16, MA Peptide (fluorescence polarization); assay: as above
T16 peptide: MAKLDEESILKQK(FITC)

[33] = biological target: T17, target peptide Arg-Ala-Lys-Leu (RAKL); assay: purified protein:peptide complex, X-ray crystallography
T17 peptide: RAKL

[34] = biological target: T18, RA peptide (XAKLDEESILKQK-FITC, X = R); assay: fluorescence polarization titration, PS1122 0-5000 nM
T18 construct: also called peptide with N-terminal arginine
T18 peptide: RAKLDEESILKQK(FITC)
Experimental: Binding affinity was measured by polarization using a labeled peptide. The polarization response and total intensity measurements were carried out at 20° C. on a microplate fluorometer with 480 nm excitation and 530 nm emission. […] Multiple analyses were performed at increasing recognizer concentration at a fixed concentration of a target peptide to obtain a titration curve. An equilibrium polarization response at each concentration was plotted and fit to calculate the KD.
Fluorescence polarization assays were performed with all candidates, and single point binding responses were measured at a fixed concentration of the binders (FIG. 13A). […] We carried out multiple polarization binding titration analysis at increasing concentration of binder protein, and the Kds were determined from the titration curves (FIG. 13B).

[35] = biological target: T18, RA peptide (XAKLDEESILKQK-FITC, X = R); assay: fluorescence polarization titration, 20 C
[36] = biological target: RL Peptide (stopped-flow); assay: stopped-flow rapid kinetics
[37] = biological target: RA Peptide (stopped-flow); assay: stopped-flow rapid kinetics
[38] = biological target: T19, HA peptide (Octet assay of PS621 variants); assay: Octet (BLI), 30 C
T19 construct: XAKLDEESILKQK with X = H
T19 peptide: HAKLDEESILKQK

[39] = biological target: T20, KA peptide (Octet assay of PS621 variants); assay: Octet (BLI), 30 C
T20 construct: XAKLDEESILKQK with X = K
T20 peptide: KAKLDEESILKQK

[40] = biological target: T21, RA peptide (Octet assay of PS621 variants); assay: Octet (BLI), 30 C
T21 construct: X… with X = R
From the text: (§3) Peptides of the sequence RXKLDEESILKQK (SEQ ID NO: 1076) were also used to evaluate the penultimate residue effect.

[41] = biological target: T22, RS peptide (Octet assay of PS621 variants); assay: Octet (BLI), 30 C
T22 construct: RXKLDEESILKQK with X = S
T22 peptide: RSKLDEESILKQK
From the text: as §3

[42] = biological target: T23, RR peptide (Octet assay of PS621 variants); assay: Octet (BLI), 30 C
T23 construct: RX… with X = R
From the text: as §3

[43] = biological target: T24, RF peptide (Octet assay of PS621 variants); assay: Octet (BLI), 30 C
T24 construct: RX… with X = F
From the text: as §3

[44] = biological target: T25, RQ peptide (Octet assay of PS621 variants); assay: Octet (BLI), 30 C
T25 construct: RX… with X = Q
From the text: as §3

[45] = biological target: T26, RE peptide (Octet assay of PS621 variants); assay: Octet (BLI), 30 C
T26 construct: RXKLDEESILKQK with X = E
T26 peptide: REKLDEESILKQK
From the text: as §3

[46] = biological target: T27, RL peptide (Octet assay of PS621 variants); assay: Octet (BLI), 30 C
T27 construct: RXKLDEESILKQK with X = L
T27 peptide: RLKLDEESILKQK
From the text: as §3

[47] = biological target: T28, HL Peptide (stopped-flow); assay: stopped-flow rapid kinetics
T28 construct: the text around it speaks of HA peptide

Kd [1]: 1170 nM
B1: PS557 (other)
chain: MPTAASATESAIEDTPAPARPEVDGRTKPKRQPRYHVVLWNDDDHTYQYVVVMLQSLFGHPPERGYRLAKEVDTQGRVIVLTTTREHAELKRDQIHAFGYDRLLARSKGSMKASIEAEE
notes: tag of the purified construct not specified; also called wild-type protein; WT

Octet response after 200 sec association [2]: 10.9 nm
Octet response after 200 sec association [3]: 4.5 nm
Octet response after 200 sec association [4]: 11.3 nm
Octet response after 200 sec association [5]: 8.5 nm
Octet response after 200 sec association [6]: 2.5 nm
Octet response after 200 sec association [7]: 9.5 nm
B2: PS829 (designed binder)
chain: B1 chain with N41D, P62R, V72M, Q75L
notes: Variant of PS557

Octet response after 200 sec association [5]: 10.7 nm
Octet response after 200 sec association [6]: 1 nm
Octet response after 200 sec association [7]: 8.6 nm
Octet response after 200 sec association [8]: 12.4 nm
Octet response after 200 sec association [9]: 0.849 nm
Octet response after 200 sec association [10]: 10.4 nm
B3: PS833 (designed binder)
chain: B1 chain with E22V, N41D, V72M
notes: Variant of PS557

Octet response [11]: 0.0049 nm
Octet response [12]: 0.0431 nm
Octet response [13]: 1.68 nm
Octet response [14]: 8.79 nm
Octet response [15]: 0.0096 nm
Octet response [16]: 1.95 nm
Octet response [17]: 0.612 nm
Octet response [18]: 4.8 nm
Octet response [19]: 7.2 nm
Octet response [20]: 0.634 nm
Octet response [21]: 7.16 nm
Kd [22]: 52 nM
Kd [23]: 289 nM
Kd [24]: 10000 nM
B4: PS557 (other)
chain: B1 chain
notes: Natural ClpS parent protein; also called WT; wild-type protein

fold improvement of binding against the wild-type protein PS557 [25]: 5 fold
B5: PS824 (designed binder)
chain: B1 chain with I12F, N41D, Q55R, V72M
notes: PS557 with I12F, N41D, Q55R, V72M

Octet response [26]: 0.0006 nm
Octet response [27]: 0.109 nm
Octet response [28]: 7.01 nm
Octet response [29]: 10.8 nm
Octet response [30]: 0.0889 nm
Octet response [11]: 0.00561 nm
Octet response [12]: 0.117 nm
Octet response [13]: 5.11 nm
Octet response [14]: 9.26 nm
Octet response [15]: 0.0509 nm
Kd [31]: 312 nM
Kd [32]: 1040 nM
Kd [24]: 7080 nM
B6: PS833 (designed binder)
chain: B1 chain with E22V, N41D, V72M
notes: Variant of PS557

binding result [33]: binds
Kd [34]: 70 nM
Kd [35]: 70 nM
B7: PS1122 (designed binder)
chain: MHSKFSHAGRICGAKFKVGEPIYRCKECSFDDTCVLCVNCFNPKDHLGHHVYTTICTEFNNGECDCGDKTAWNHTLFCKAEEG
notes: PS621 with T47L, I63E, E70T; on chip labeled with streptavidin-tetraCy3

koff [36]: 17.7 s⁻¹
koff [37]: 61.8 s⁻¹
Octet response [38]: 2
Octet response [39]: 5.2
Octet response [40]: 9.3
Octet response [41]: 7.1
Octet response [42]: 6.3
Octet response [43]: 8.4
Octet response [44]: 7.4
Octet response [45]: 5.8
Octet response [46]: 10.2
B8: PS621 (other)
chain: B7 chain with L47T, E63I, T70E
notes: UBR protein (UBR-box) parent of PS1101-PS1122

koff [47]: 40.2 s⁻¹
koff [36]: 14.4 s⁻¹
Octet response [38]: 3
Octet response [39]: 6.5
Octet response [40]: 10.8
Octet response [41]: 8.5
Octet response [42]: 6.7
Octet response [43]: 10
Octet response [44]: 9.1
Octet response [45]: 7.6
Octet response [46]: 11.8
B9: PS1115 (designed binder)
chain: B7 chain with L47R, F59R, E63I, T70E, T75E
notes: Variant of PS621

From patent US20240272170A1 (QUANTUM SI, published 2024)
